Measurements published in patent US20260097129A1, “ANTIBODY-DRUG CONJUGATE COMPRISING DRUG AND ANTIBODY SPECIFICALLY BINDING TO GRP94 OR ANTIGEN-BINDING FRAGMENT THEREOF” (KOOKMIN UNIVERSITY INDUSTRY ACADEMY COOPERATION FOUNDATION, priority 2022, published 2026).

Experiments:
HCT116 cells = assay: Antibody internalization, FabFluor-pH Red labeling, Incucyte live cell imaging; format: cell-based, human
Procedure: Antibody internalization in HCT116 cells was measured using the FabFluor-pH Red Antibody Labeling Reagent (Sartorius, Gottingen, Germany) according to the manufacturer's instructions. […] HCT116 cells were seeded at a density of 10,000 cells/well in a 96-well culture plate and allowed to adhere overnight. The control IgG, K101.1, or trastuzumab (MedChemExpress, Princeton, NJ, USA) were individually labeled with the human FabFluor-pH Red antibody labeling reagent at a 1:3 molar ratio in PBS and incubated for 15 minutes. The labeled antibodies were added to the cell culture medium at a final concentration of 2 μg/ml. The plate was transferred to the Incucyte SX1 live cell analysis system (Sartorius) and images were captured with a 10× objective lens for 12 hours. The fluorescence intensity was individually measured for each image.
The internalization of antibodies in HCT116 cells was measured using the FabFluor-pH Red antibody labeling reagent (Sartorius, Göttingen, Germany) according to the manufacturer's instructions. […] However, after internalization of the reagent-labeled antibody, the fluorescence intensity increases under the acidic conditions inside endosomes and lysosomes. HCT116 cells were seeded at a density of 10,000 cells per well in a 96-well culture plate and allowed to attach overnight. […] Fluorescence intensity was then measured.

HCT116 = assay: Cell proliferation assay, real-time live cell imaging (Incucyte); format: cell-based, human; settings: 133 nM K101.1, 33 nM and 133 nM K101.1-Sec-DM1, 62 hours, FIG. 9
Procedure: (§1) To investigate the effect of K101.1-Sec-DM1 on CRC cell growth in vitro, 1×10^4 HT29, LoVo, or 5×10^3 HCT116 CRC cells were seeded in the wells of a 96-well plate and incubated at 37° C. for 16 hours. The cells were then treated with either 133 nM of K101.1 or 33 nM and 133 nM of K101.1-Sec-DM1, with or without the presence of the drug. Cell growth was measured for 62 hours using the Incucyte SX1 live cell analysis instrument (Sartorius).

HT29 = assay: as above; format: cell-based, human; settings: 133 nM K101.1, 33 nM and 133 nM K101.1-Sec-DM1, 62 hours, FIG. 9
Procedure: as §1

LoVo = assay: as above; format: cell-based, human; settings: 133 nM K101.1, 33 nM and 133 nM K101.1-Sec-DM1, 62 hours, FIG. 9
Procedure: as §1

rhGRP94 = rhGRP94 (Homo sapiens, UniProt P14625); assay: ELISA binding to immobilized rhGRP94; settings: immobilized rhGRP94, FIG. 8
rhGRP94, sequence (P14625 22-803): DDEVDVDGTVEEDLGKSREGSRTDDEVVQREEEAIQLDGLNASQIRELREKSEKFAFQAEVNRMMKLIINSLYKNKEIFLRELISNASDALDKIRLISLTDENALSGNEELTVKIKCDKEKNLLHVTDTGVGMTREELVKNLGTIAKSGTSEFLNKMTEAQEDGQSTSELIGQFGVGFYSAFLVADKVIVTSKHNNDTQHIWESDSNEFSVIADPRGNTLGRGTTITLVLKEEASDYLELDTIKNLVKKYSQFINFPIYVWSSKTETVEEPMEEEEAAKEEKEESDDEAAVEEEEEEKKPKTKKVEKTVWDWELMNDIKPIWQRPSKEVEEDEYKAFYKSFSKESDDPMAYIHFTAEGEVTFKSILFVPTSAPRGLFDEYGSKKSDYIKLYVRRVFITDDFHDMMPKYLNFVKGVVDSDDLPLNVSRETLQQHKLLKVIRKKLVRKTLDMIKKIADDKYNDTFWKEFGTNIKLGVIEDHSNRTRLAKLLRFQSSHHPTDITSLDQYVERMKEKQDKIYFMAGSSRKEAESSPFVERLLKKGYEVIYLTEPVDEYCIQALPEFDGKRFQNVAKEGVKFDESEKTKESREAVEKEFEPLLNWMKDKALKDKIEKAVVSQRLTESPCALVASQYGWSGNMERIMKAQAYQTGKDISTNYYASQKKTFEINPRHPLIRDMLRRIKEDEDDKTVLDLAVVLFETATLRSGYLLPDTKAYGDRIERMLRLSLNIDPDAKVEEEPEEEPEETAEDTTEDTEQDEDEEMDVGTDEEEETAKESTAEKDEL
Procedure: (§2) A 96-well microplate was coated with 0.1 μg of rhGRP94 and incubated at 4° C. for 16 hours. After blocking the plate with 3% (w/v) BSA in PBS at 37° C. for 2 hours, the plate was incubated with 20 µg/mL of K101.1-Sec (SelT) at 37° C. for 2 hours. After washing the plate three times with PBS-T, it was incubated with HRP-conjugated anti-human Fc secondary antibody (1:5,000; Invitrogen) or HRP-conjugated anti-HA antibody (1:3,000; Bethyl Laboratories, Montgomery, TX, USA) at 37° C. for 1 hour. The color reaction was initiated with 100 μL of TMB substrate solution and terminated with 2N H2SO4 solution. Optical density was measured at 450 nm using a microplate reader.
as §2, with “blocking” for “blocking the plate”, “20 μg/mL” for “20 µg/mL”, “washing” for “washing the plate”, “PBS-T, the plate” for “PBS-T, it”, “Invitrogen)” for “Invitrogen) or HRP-conjugated anti-HA antibody (1:3,000; Bethyl Laboratories, Montgomery, TX, USA)”

rmGRP94 = rmGRP94 (Mus musculus, UniProt P08113); assay: ELISA binding to immobilized rmGRP94; settings: immobilized rmGRP94, FIG. 8
rmGRP94, sequence (P08113 22-802): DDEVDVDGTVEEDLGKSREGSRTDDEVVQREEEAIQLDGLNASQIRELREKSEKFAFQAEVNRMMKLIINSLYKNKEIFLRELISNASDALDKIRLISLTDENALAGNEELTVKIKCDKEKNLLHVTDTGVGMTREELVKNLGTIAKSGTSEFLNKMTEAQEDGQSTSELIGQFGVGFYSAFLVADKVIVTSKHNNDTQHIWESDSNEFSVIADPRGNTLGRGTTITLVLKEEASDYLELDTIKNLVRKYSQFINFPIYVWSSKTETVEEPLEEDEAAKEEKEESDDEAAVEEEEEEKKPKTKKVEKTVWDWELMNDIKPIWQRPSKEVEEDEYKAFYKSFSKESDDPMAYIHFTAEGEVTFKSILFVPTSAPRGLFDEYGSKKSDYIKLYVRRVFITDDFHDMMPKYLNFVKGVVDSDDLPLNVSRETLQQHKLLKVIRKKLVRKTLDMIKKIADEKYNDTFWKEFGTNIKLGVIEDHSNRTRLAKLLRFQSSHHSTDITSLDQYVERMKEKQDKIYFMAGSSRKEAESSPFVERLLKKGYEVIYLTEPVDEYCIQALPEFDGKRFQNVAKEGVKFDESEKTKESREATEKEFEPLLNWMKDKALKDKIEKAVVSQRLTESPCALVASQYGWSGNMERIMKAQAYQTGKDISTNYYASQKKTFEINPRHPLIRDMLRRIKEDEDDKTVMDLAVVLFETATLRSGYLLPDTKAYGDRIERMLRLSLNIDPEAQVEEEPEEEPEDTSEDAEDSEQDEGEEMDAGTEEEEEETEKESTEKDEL

Molecule | antibody internalization (FabFluor fluorescence intensity) (HCT116 cells; labeled antibody 2 μg/mL, imaged for 10 hours, Example 2, FIG. 10) | antibody internalization (FabFluor red fluorescence intensity) (HCT116 cells; labeled antibody 2 μg/ml, imaged for 12 hours, Example 1, FIG. 1) | effect on CRC cell growth (HCT116) | effect on CRC cell growth (HT29) | effect on CRC cell growth (LoVo) | antigen binding by ELISA compared with parent antibody K101.1 (rhGRP94) | antigen binding by ELISA compared with parent antibody K101.1 (rmGRP94)
K101.1: GRP94-specific IgG antibody, CDRs SEQ ID NO: 1-6, VH SEQ ID NO: 7, VL SEQ ID NO: 8 (antibody, V domains shown) VH: EVQLLESGGGLVQPGGSLRLSCAASGFTFSNYSMSWVRQAPGKGLEWVSGIYYGSGNKYYADSVKGRFTISRDNSKNTLYLQMNSLRAEDTAVYYCAKNLASFDYWGQGTLVTVSS VL: QSVLTQPPSASGTPGQRVTISCSGSSSNIGSNSVNWYQQLPGTAPKLLIYSNSHRPSGVPDRFSGSKSGTSASLAISGLRSEDEADYYCGTWDSSLSGYVFGGGTKLTVL | exhibited stronger internalization than trastuzumab | promoted internalization more efficiently than trastuzumab | little to no effect | little to no effect | little to no effect |  | 
K101.1-Sec-DM1 (conjugate, non-natural residues; left off: small tags and cut ends; large carriers) heavy: EVQLLESGGGLVQPGGSLRLSCAASGFTFSNYSMSWVRQAPGKGLEWVSGIYYGSGNKYYADSVKGRFTISRDNSKNTLYLQMNSLRAEDTAVYYCAKNLASFDYWGQGTLVTVSS light: QSVLTQPPSASGTPGQRVTISCSGSSSNIGSNSVNWYQQLPGTAPKLLIYSNSHRPSGVPDRFSGSKSGTSASLAISGLRSEDEADYYCGTWDSSLSGYVFGGGTKLTVL |  |  | significantly and more strongly inhibited the growth | significantly and more strongly inhibited the growth | significantly and more strongly inhibited the growth | no significant difference in antigen binding | no significant difference in antigen binding
